Assay results reported in patent publication US20230049152A1 (Genentech, published 2023).
Changes are numbered by the printed parent chain.

T1: human CCR4 (human, UniProt P51679 1-360)
T1 construct: whole, on cells; transiently expressed on HEK293 cells
T1 sequence (looked up): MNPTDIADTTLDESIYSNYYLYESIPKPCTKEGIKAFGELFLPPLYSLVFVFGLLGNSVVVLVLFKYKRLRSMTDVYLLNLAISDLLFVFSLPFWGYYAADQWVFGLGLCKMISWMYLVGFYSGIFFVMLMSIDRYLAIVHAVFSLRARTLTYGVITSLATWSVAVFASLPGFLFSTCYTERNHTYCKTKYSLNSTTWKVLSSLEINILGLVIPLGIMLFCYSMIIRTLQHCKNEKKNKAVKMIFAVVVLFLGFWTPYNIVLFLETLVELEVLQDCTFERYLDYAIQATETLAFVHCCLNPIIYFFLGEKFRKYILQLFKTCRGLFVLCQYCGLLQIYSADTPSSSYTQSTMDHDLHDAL

T2: human ACKR2 (human, UniProt O00590 1-384)
T2 construct: whole, on cells; transiently expressed on HEK293 cells
T2 sequence (looked up): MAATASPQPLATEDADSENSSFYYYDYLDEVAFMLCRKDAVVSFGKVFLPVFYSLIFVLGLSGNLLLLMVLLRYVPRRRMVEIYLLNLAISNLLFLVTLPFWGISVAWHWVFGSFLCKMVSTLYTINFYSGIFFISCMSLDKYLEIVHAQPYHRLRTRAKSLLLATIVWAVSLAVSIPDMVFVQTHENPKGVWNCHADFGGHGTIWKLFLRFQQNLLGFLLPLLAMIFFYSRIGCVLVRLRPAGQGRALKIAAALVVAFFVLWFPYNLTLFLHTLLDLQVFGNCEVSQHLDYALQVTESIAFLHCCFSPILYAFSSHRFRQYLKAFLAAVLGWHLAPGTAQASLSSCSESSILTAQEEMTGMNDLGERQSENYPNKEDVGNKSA

B1: hu.Ab4.H1L1 (antibody, human IgG1, kappa)
heavy: not shown
light: DYQMTQSPSSLSASVGDRVTITCQASQSISSYLSWYQQKPGKRPKLLIYKASTLASGVPSRFSGSGSGTDFTLTISSLQPEDFATYYCQQGYTSSNIDNIFGGGTKVEIKRTVAAPSVFIFPPSDEQLKSGTASVVCLLNNFYPREAKVQWKVDNALQSGNSQESVTEQDSKDSTYSLSSTLTLSKADYEKHKVYACEVTHQGLSSPVTKSFNRGEC
notes: also called hu.Ab4.H1Ll
B2: hu.Ab4.H12L3 (antibody, human IgG1, kappa)
heavy: not shown
light: B1 light with R43A
notes: fucosylated human IgG1; also called huCCR8-Ab4.H12L3.hIgG1; Ab4 variant
B3: hu.Ab5.H1L1 (antibody, human IgG1, kappa)
heavy: not shown
light: DIQVTQSPSSLSASVGDRVTITCQASENIANALAWYQQKPGKPPKFLIYGASNLASGVPSRFSGSGSGTDFTFTISSLQPEDIATYYCQQAYYGNSFVEGTFGGGTKVEIKRTVAAPSVFIFPPSDEQLKSGTASVVCLLNNFYPREAKVQWKVDNALQSGNSQESVTEQDSKDSTYSLSSTLTLSKADYEKHKVYACEVTHQGLSSPVTKSFNRGEC
B4: hu.Ab5.H13L1 (antibody, human IgG1, kappa)
heavy: not shown
light: B3 light
notes: fucosylated human IgG1; also called Ab5 variant

What was measured:
human CCR2 = molecular target: T3, human CCR2 (human, UniProt P41597 1-374); experiment: flow cytometry, HEK293 with N-term FLAG-tagged human CCR2
T3 construct: whole, on cells; transiently expressed on HEK293 cells
Excerpt: (§1) FIGS. 4A-4F depicts the binding data of hu.Ab3.H1L1 (FIG. 4A), hu.Ab4.H1L1 (FIG. 4B), and hu.Ab5.H1L1 (FIG. 4C), as well as the commercial anti-CCR8 mAbs murine anti-human CCR8 mAb 433H (BD Biosciences) (FIG. 4D), and murine anti-human CCR8 mAb L263G8 (Biolegend) (FIG. 4E), and the humanized anti-human Yoshida anti-CCR8 mAb (FIG. 4F), to HEK293 cells that were transiently transfected with N-term FLAG-tagged plasmids encoding for human GPCRs (CCR2, CCR3, CCR4, CCR5, CCR8, CXCR4, ACKR2, and ACKR4), hCCR8 constructs, or with a mock construct using transIT X2 (reagent:DNA=3:1).
(§2) To confirm the selectivity to CCR8, the binding of hu.Ab3.H1L1, hu.Ab4.H1L1, and hu.Ab5.H1L1, as well as the Yoshida humanized anti-human CCR8, murine anti-human CCR8 mAb L263G8 (Biolegend, Commercial Ab) and murine anti-human CCR8 mAb 433H (BD Biosciences, Commercial Ab), were characterized by flow cytometry on HEK293 cells that were transiently transfected with plasmids encoding for FLAG-tagged other related human GPCRs (CCR2-5, CXCR4, ACKR2, and ACKR4). Cell surface expression of each GPCR was confirmed by staining with an anti-FLAG antibody control. In particular, HEK293 cells were transfected with N-term FLAG-tagged human CCR2, CCR3, CCR4, CCR5, CXCR4, ACKR2, ACKR4, hCCR8 constructs, or with a Mock construct using transIT X2 (reagent:DNA=3:1) for 24 hours, and surface stained with various anti-hCCR8 monoclonal antibodies at 5 ug/ml, or rabbit anti-Flag pAb (Sigma) followed by AF647-anti-hIgG or AF647-anti-RbIgG respectively. Antibodies hu.Ab4.H1L1, and hu.Ab5.H1L1, only stained the hCCR8-containing cells, confirming their specificity to hCCR8. […] Thus, the CCR8 selective hu.Ab4.H1L1 and hu.Ab5.H1L1 antibodies with the best ADCC activities were carried forward.

human CCR4 [1] = molecular target: T1, human CCR4; experiment: flow cytometry, HEK293 with N-term FLAG-tagged human CCR4
Excerpt: as §1
(§3) To confirm the selectivity to CCR8, the binding of hu.Ab3.H1L1, hu.Ab4.H1L1, and hu.Ab5.H1L1, as well as the Yoshida humanized anti-human CCR8, murine anti-human CCR8 mAb L263G8 (Biolegend, Commercial Ab) and murine anti-human CCR8 mAb 433H (BD Biosciences, Commercial Ab), were characterized by flow cytometry on HEK293 cells that were transiently transfected with plasmids encoding for FLAG-tagged other related human GPCRs (CCR2-5, CXCR4, ACKR2, and ACKR4). Cell surface expression of each GPCR was confirmed by staining with an anti-FLAG antibody control. […]

human ACKR2 = molecular target: T2, human ACKR2; experiment: flow cytometry, HEK293 with N-term FLAG-tagged human ACKR2
Excerpt: as §1, §3

human CCR8 [2] = molecular target: T4, human CCR8 (human, UniProt P51685 1-355); experiment: cell-based or functional assay
human CCR8 [3] = molecular target: T4, human CCR8; experiment: radioligand competition, 125I-labelled IgG versus unlabelled IgG on CHO cells stably expressing human CCR8
Method: Cell-based affinity measurements were performed using radiolabeled IgGs and CHO cell lines stably expressing human or cyno CCR8 for hu.Ab5.H13L1 and hu.Ab4.H12L3.
Briefly, stable CHO cells expressing human or cyno CCR8 were seeded in cold binding buffer (Opti-MEM+2% FBS+50 mM HEPES, pH 7.2+0.1% Sodium Azide) at 50,000 cells per well. A fixed concentration of ¹²⁵I-anti-CCR8 radiolabeled using the NEX244 Iodogen method (Perkin Elmer) was mixed with serially diluted anti-CCR8 antibodies starting at 20 nM or 50 nM. The antibody mixture was added to the cells and incubated at room temperature for 12 hours under gentle agitation. The cells and antibodies were then transferred to Millipore multiscreen filter plates. The filter plates were washed 4 times with 250 μL of cold binding buffer and dried for at least 30 minutes and the filters were punched into 5 mL polystyrene tubes. The radioactivity was measured using a Perkin Elmer Wallac Wizard 2470 Gamma Counter set at 1 count per minute with 0.8 counting efficiency. The data were fitted using the heterologous one site-fit Ki competitive binding model in GraphPad Prism.

human CXCR4 = molecular target: T5, human CXCR4 (human, UniProt P61073 1-352); experiment: flow cytometry, HEK293 with N-term FLAG-tagged human CXCR4, procedure of FIG. 4
T5 construct: whole, on cells; transiently expressed on HEK293 cells
Excerpt: as §2
(§4) To reconfirm that the Ab4 and Ab5 variants remained selective to CCR8 compared to the corresponding HIL1 variants, binding was analyzed by flow cytometry following the procedure as described for FIG. 4A and FIG. 4B. […]

human CCR4 [4] = molecular target: T1, human CCR4; experiment: flow cytometry, HEK293 with N-term FLAG-tagged human CCR4, procedure of FIG. 4
Excerpt: as §2, §4

human CCR8 [5] = molecular target: T4, human CCR8; experiment: cell-based or functional assay; remark: listed apart in the source

T5 sequence (P61073 whole entry): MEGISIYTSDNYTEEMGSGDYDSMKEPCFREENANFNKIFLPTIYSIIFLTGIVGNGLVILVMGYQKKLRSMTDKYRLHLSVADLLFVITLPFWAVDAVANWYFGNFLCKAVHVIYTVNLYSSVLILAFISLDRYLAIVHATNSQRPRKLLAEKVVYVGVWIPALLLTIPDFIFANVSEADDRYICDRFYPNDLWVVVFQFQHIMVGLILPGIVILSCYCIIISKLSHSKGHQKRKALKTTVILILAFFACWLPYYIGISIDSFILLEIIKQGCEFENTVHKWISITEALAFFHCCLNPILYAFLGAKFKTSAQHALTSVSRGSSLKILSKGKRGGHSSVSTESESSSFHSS
T3 sequence (P41597 whole entry): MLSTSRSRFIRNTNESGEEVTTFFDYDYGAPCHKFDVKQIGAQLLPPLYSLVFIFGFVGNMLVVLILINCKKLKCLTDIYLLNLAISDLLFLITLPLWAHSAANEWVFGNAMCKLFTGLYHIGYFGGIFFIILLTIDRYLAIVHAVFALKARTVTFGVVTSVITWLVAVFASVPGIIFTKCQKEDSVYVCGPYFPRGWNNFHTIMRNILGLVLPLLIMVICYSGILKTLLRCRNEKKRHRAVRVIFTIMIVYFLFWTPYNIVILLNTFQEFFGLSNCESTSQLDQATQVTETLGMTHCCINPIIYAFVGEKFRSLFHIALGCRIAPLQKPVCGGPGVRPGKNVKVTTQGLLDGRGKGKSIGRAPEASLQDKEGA

Binder	binding result (human CCR2)	binding result (human CCR4 [1])	binding result (human ACKR2)	ADCC EC50, NK-92_F158 effector cells, calcein release (human CCR8 [2]) [nM]	Kd (human CCR8 [3]) [nM]	binding result (human CXCR4)	binding result (human CCR4 [4])	ADCC EC50, NK-92 F158 cells (FIG. 11A) (human CCR8 [5]) [nM]	ADCC EC50, NK-92 V158 cells (FIG. 11B) (human CCR8 [5]) [nM]
B1	no binding (tested: 5 ug/ml)	no binding (tested: 5 ug/ml)	no binding (tested: 5 ug/ml)	0.08	–	–	–	–	–
B2	–	–	–	–	0.0284	no binding (tested: 5 ug/ml)	no binding (tested: 5 ug/ml)	0.27	0.21
B3	no binding (tested: 5 ug/ml)	no binding (tested: 5 ug/ml)	no binding (tested: 5 ug/ml)	0.02	–	–	–	–	–
B4	–	–	–	–	0.004	no binding (tested: 5 ug/ml)	no binding (tested: 5 ug/ml)	0.14	0.094
